Source: the supplement of paper PMC10567573
± gives the standard deviation.

Assay: protein stability index of a GFP-peptide fusion (GPS, HEK-293T) (PSI 1-6); higher = more stable
Settings: c terminus: a fixed tail appended
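Note: 24-mer peptide tiles fused after GFP, lentivirally expressed, FACS-sorted into six equal bins by GFP/DsRed ratio, decoded by Illumina sequencing, PSI is the read-weighted mean bin number.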

Row | Sequence | protein stability index (treatment: DMSO) | protein stability index (treatment: MLN4924 1 uM, 8 h)
1 | REAFPSWSSRSPQERSRVLNQVAD [ALDH8A1] | 4.2 ± 0.33 | 4.233 ± 0.03
2 | GGAGSSEDDAQSRRDEQDDDDKGD [GOLPH3] | 5.57 ± 0.24 | 5.69 ± 0.28
3 | FTLKEEKPKMYFMTMIVSLAAVAW [ARL6IP1] | 3.4 ± 0.81 | 2.8 ± 0.86
4 | VPRPGIPPMTQAQAVSAPGILNRP [ZNF207] | 4.55 ± 0.063 | 4.45 ± 0.086
5 | EHPNLVRDHVETELLKEAELIRNI [TEKT4] | 4.6 ± 0.12 | 4.56 ± 0.21
6 | RHYAYLRDSLSHLVPALRLPGRKL [INTS4] | 2.31 ± 0.16 | 2.49 ± 0.45
7 | PKGRFERKRNPSRKKQHICDECGK [ZNF24] | 3.82 ± 0.49 | 
8 | LVELLQPFKQVAEMLSASRYPTIS [ZBED1] | 2.65 ± 0.66 | 2.29 ± 0.57
9 | QYVYIAVMDYLPISSTSTKRTYWP [PLD5] | 3.01 ± 0.59 | 2.74 ± 0.29
10 | KALFTCPFNGDCRITKDNRRHCQA [VDR] | 2.84 ± 0.31 | 3.21 ± 0.42
11 | TLPLTLIVILENIAVAWIYGTKKF [SLC6A17] | 3.03 ± 0.34 | 3.35 ± 0.43
12 | RALATSNARAQQRAAAQQRRSFLN [GNAS] | 4.02 ± 0.15 | 4.3 ± 0.13
13 | EGASPLSERCQRQLQSLCRGLGLG [FANCE] | 3.31 ± 0.13 | 3.02 ± 0.32
14 | MRGVAEVKEPCSLPMLSVDMENKE [SAMD13] | 5.32 ± 0.18 | 5.53 ± 0.21
15 | KEYTTRTQAPPSVILGVTNPFFAK [DENND6A] | 2.81 ± 0.24 | 2.738 ± 0.021
16 | MVRFKHRYLLCELVSDDPRCRLSL [POP5] | 2.56 ± 0.38 | 2.55 ± 0.58
17 | AQDSIELLTTSGIQFKKHEEEGIE [CNOT7] | 5.46 ± 0.24 | 5.48 ± 0.34
18 | GLLLGSHGLLGSPVRAAASSPVTT [CDC25B] | 2.74 ± 0.28 | 3.26 ± 0.31
19 | RLEINVLKKIKEKDKENKFLCVLM [CLK3] | 2.57 ± 0.52 | 2.1 ± 0.082
20 | RDILVEADGAWVVKMFYSFQDKRN [STK38L] | 2.07 ± 0.29 | 2.3 ± 0.4
21 | TEPETAPTTEPETEPEDDRGPVVP [GNAS] | 5.61 ± 0.14 | 5.63 ± 0.27
22 | QVITQTGVPGQPLNFKAEPESETS [PTPRD] | 5.18 ± 0.24 | 5.31 ± 0.25
23 | KRKMVSWEASSLGLVTAALHMVIV [KMT2E] | 2.53 ± 0.62 | 3.33 ± 0.57
24 | GVMLYTLLVGRYPFHDSDPSALFS [TRIB1] | 2.52 ± 0.37 | 2.7 ± 0.46
25 | VDFNTLKSIGSEPHEDHVFLVANF [MATN2] | 2.06 ± 0.3 | 2.18 ± 0.18

Row | Sequence | protein stability index (treatment: DMSO) | protein stability index (treatment: MLN4924 1 uM, 8 h)
26 | LPNFAFSVPLAYFLLSQQTDLPEC [TCF25] | 2.72 ± 1.8 | 2.94 ± 0.38
27 | SDHEMREEEKLKAEEIRIKGKYNI [KCNK9] | 5.11 ± 0.21 | 5.22 ± 0.3
28 | KNGEWGTVCDDKWDLVSASVVCRE [LOXL2] | 3.85 ± 0.63 | 3.8 ± 0.73
29 | RYSGKILKNNETLVQHGVKPQEIV [IQUB] | 3.42 ± 0.21 | 3.71 ± 0.53
30 | MSALGSPVRAYDFLLKFLLVGDSD [RAB40B] | 2.42 ± 0.38 | 2.13 ± 0.32
31 | RDYAPPSRGYAYRDNGHSNRDEHS [RBMY1A1] | 4.59 ± 0.11 | 4.57 ± 0.36
32 | QVVTVHLQTSLENGTRVQEEPELV [FKBP8] | 4.18 ± 0.15 | 4.37 ± 0.31
33 | ERIDCQGIPPSSKDKLGVWVYKNK [KLHDC2] | 3.75 ± 0.23 | 3.64 ± 0.34
34 | HQMGVVHRDLKPENLLLASKLKGA [CAMK2A] | 3.73 ± 0.21 | 3.82 ± 0.12
35 | KQLEPLVAPLADGKVAVGQDDLTV [VPS39] | 5.14 ± 0.27 | 5.18 ± 0.21
36 | QDRFRIELSEEGAEGRVVGRKDIT [MOSPD3] | 4.91 ± 0.23 | 5.1 ± 0.31
37 | LALFSHLVNHVNIRLQAELEEGEN [SMG5] | 2.5 ± 0.21 | 2.7 ± 0.44
38 | RLKKEEEDRIVTQNRVFAYLCKRV [CEP70] | 2.55 ± 0.31 | 2.86 ± 0.43
39 | SEHFKTTSQKVARKFWWKNVKMIV [VAMP8] | 2.69 ± 0.24 | 2.61 ± 0.71
40 | AASLAGCLGALCENTCLLRGFSGG [TSPAN10] | 2.22 ± 0.57 | 2.37 ± 0.58
41 | SAPYSAAFLELPHGSGGSGYPAAP [TBX6] | 3.27 ± 0.15 | 3.55 ± 0.27
42 | FATPEREMRISESAASGARFPLDS [PCDHGC5] | 4.44 ± 0.11 | 4.57 ± 0.3
43 | CVPGQVFSPDGPSRFRKAYKPEQP [LOXL2] | 3.17 ± 0.19 | 3.33 ± 0.091
44 | HCLHSAGHSQPDGAYSSASSFSRP [DLX1] | 3.53 ± 0.27 | 3.61 ± 0.17
45 | FSALYWFNYELVKSWLNGFRPKDQ [SLC25A39] | 2.2 ± 0.39 | 2.61 ± 0.92
46 | PADFSLGSLPGPGQTSGAREPPQA [VENTX] | 5.12 ± 0.2 | 5.16 ± 0.24
47 | PDSMFLAMLAVVSCASIGSGEPPT [CDK11A] | 2.74 ± 0.15 | 3.222 ± 0.003
48 | THLEGDTVQIICNTGYRLQNNENN [CFHR2] | 3.79 ± 0.22 | 3.87 ± 0.14
49 | YSAAALQEAMKRLRGAKAFRLPGL [FCHO1] | 2.3 ± 0.076 | 2.42 ± 0.2
50 | MAEEQGRERDSVPKPSVLFLHPDL [ALG2] | 4.36 ± 0.15 | 4.5 ± 0.32
